# Measured values published in publication PMC3216493 (Scientific Reports, 2011).
# B1: SplitCore183 (split subunit of coreN plus coreC183) (complex)
# chain 1: MDIDPYKEFGATVELLSFLPSDFFPSVRDLLDTASALYREALESPEHCSPHHTALRQAILCWGELMTLATWVGVNLEDP
# chain 2: MASRDLVVSYVNTNMGLKFRQLLWFHISCLTFGRETVIEYLVSFGVWIRTPPAYRPPNAPILSTLPETTVVRRRGRSPRRRTPSPRRRRSQSPRRRRSQSRESQC
# B2: SplitCore149 (split subunit of coreN plus coreC149) (complex)
# chain 1: B1 chain 1
# chain 2: MASRDLVVSYVNTNMGLKFRQLLWFHISCLTFGRETVIEYLVSFGVWIRTPPAYRPPNAPILSTLPETTVV
# B3: HBc149H6 (contiguous truncated HBV core protein, aa 1-149, with C terminal His6) (domain or fragment)
# chain: MDIDPYKEFGATVELLSFLPSDFFPSVRDLLDTASALYREALESPEHCSPHHTALRQAILCWGELMTLATWVGVNLEDPASRDLVVSYVNTNMGLKFRQLLWFHISCLTFGRETVIEYLVSFGVWIRTPPAYRPPNAPILSTLPETTVV
# Target: the molecule itself
# Assay: native gel or EMSA
row,Protein,binding result
1,B1,binds
2,B2,binds
3,B3,binds
